Test [1] has as its target farnesylated Cryptochrome interacting basic helix-loop-helix 1 (CIB1-CAAX) (UniProt Q8GY61). Nature of the test: light-induced membrane recruitment assay (TIRF microscopy); living COS-7 or MC3T3-E1 cells co-expressing the Cry2 construct and CIB-CAAX; illumination limited to a 5 μm-diameter circle (440 nm); 37 °C.
For test [2] the target is unchanged. The test can be described thus: light-induced membrane recruitment assay (TIRF microscopy); living COS-7 cells co-expressing the Cry2 construct and CIB1-CAAX at the plasma membrane; whole-cell blue light (440 nm, 50 ms pulses at 10 s intervals); fluorescence after ten pulses normalised to that before illumination; 37 °C.
Test [3] concerns the target mCherry-optoPlexin (chimera of Cry2 at the amino terminus, mCherry, and the intracellular domain of Plexin-B1 at the C terminus) (not stated | mouse) (UniProt Q96524). Nature of the test: membrane co-recruitment assay (TIRF microscopy); living COS-7 cells co-expressing mVenus-RhoGEF, the mCherry-tagged Cry2 construct and CIB-CAAX; whole-cell blue light; increase of the RhoGEF's fluorescence relative to that of optoPlexin (relative co-recruitment); only cells with at least 30% increase in optoPlexin signal; also with Erlotinib.

UniProt Q8GY61, sequence (Q8GY61 whole entry): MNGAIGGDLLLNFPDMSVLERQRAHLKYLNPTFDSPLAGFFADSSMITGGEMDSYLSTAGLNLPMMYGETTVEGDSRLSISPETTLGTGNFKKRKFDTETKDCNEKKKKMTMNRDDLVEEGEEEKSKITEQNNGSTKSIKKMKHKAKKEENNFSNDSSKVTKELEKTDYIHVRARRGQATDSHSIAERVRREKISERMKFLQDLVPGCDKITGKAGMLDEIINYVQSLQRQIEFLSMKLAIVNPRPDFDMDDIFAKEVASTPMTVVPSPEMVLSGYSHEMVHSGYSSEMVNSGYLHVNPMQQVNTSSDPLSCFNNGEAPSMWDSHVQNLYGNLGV

Consider “mCherry-optoPlexin (chimera of Cry2 at the amino terminus, mCherry, and the intracellular domain of Plexin-B1 at the C terminus) (from UniProt Q96524 1-612)”, for which the fold increase of TIRF fluorescence intensity (membrane recruitment) in test [1] turned out to be 4 fold; in test [2], 2 fold. In test [3], “mVenus-Leukemia-associated RhoGEF (mVenus-LARG) (from UniProt Q9NZN5 1-1544) (natural protein)” gave a relative co-recruitment (increase in fluorescence relative to that of optoPlexin) of 60%.

Regarding “mVenus-PDZ-RhoGEF (mVenus-PRG) (from UniProt O15085 1-1522) (natural protein)”, in test [3], the relative co-recruitment (increase in fluorescence relative to that of optoPlexin) was found to be 26%.

The values are drawn from paper PMC5482063.
